Assay results: US7354588B1, “Functional derivatives of ICAM-1 with altered ability to bind LFA-1 or HRV” (Dana Farber Cancer Institute, priority 1987, dated 2008)

Experiments:
LB-2 mAb = assay: Indirect immunofluorescence flow cytofluorometry: mAb LB-2 binding to COS cells expressing ICAM-1 mutants (SLFI, % CL203); assay type: cell-based; details: SLFI normalized to CL203 SLFI of the mutant
Method: (§1) For HRV binding studies, COS cells were reseeded in a 24 well plate. One day later, the confluent monolayer was washed twice with 1 ml of RPMI 1640/10 mM MgCl2/25 mM Hepes pH 7.3 (rhinovirus-14 buffer). Transfected COS cells were labeled with 51Cr for binding to LFA-1 coated plastic as previously described (Staunton, D. E., et al., Nature 339:61-64 (1989). Immunoprecipitation and indirect immunofluorescence was performed using ICAM-1 MAb RR1/1 (Rothlein, R., et al., J. Immunol. 137:1270-1274 (1986)), R6.5 (Rothlein, R., et al., J. Immunol. 141:1665-1669 (1988)), LB-1 (Clark, E. A., et al., Hum. Immunol. 16:100-113 (1986)) and CL203 (Maio, M., J. Immunol. 143:181-188 (1989), all of which references are incorporated herein by reference).
(§2) Binding of RR1, R6.5, and LB-2 mAb was normalized to binding of CL203 mAb using Specific Linear Fluorescence Intensity (SLFI): % CL203=(mAbSLFI)×100)/CL203mABSLFI
(§3) In Table 25, the notation for the mutations uses the one-letter code for the wild-type sequence followed by a slash and the one-letter code for the corresponding mutant sequence. The position of the first amino acid within the sequence is indicated. Wild type residues precede the slash followed by the residues they were substituted for in the mutant. COS cells expressing ICAM-1 mutants were tested for adherence to LFA-1 coated plastic and for binding 35S met-labeled HRV14. LFA-1 and HRV14 binding is normalized for percent of cells expressing mutant ICAM-1 and for binding of wild type expressing cells. Binding is presented as mean and standard error (SE) for multiple experiments (n). Effects of two-fold or greater were reproducible in LFA-1, HRV and mAb binding assays and thus considered significant (bold and underlined). The specific linear fluorescence intensity (SLFI) of CL203 for each mutant is normalized to that of wild type CL203 SLFI (% WT) as discussed above. The SLFI of RR1/1, R6.5 and LB-2 SLFI is normalized to the CL203 SLFI of the mutant (% CL203) as described above.

R6.5 mAb = assay: Indirect immunofluorescence flow cytofluorometry: mAb R6.5 binding to COS cells expressing ICAM-1 mutants (SLFI, % CL203); assay type: cell-based; details: SLFI normalized to CL203 SLFI of the mutant
Method: as §1, §2, §3

RR1/1 mAb = assay: Indirect immunofluorescence flow cytofluorometry: mAb RR1/1 binding to COS cells expressing ICAM-1 mutants (SLFI, % CL203); assay type: cell-based; details: SLFI normalized to CL203 SLFI of the mutant
Method: as §1, §2, §3

CL203 mAb = assay: Indirect immunofluorescence flow cytofluorometry: mAb CL203 binding to COS cells expressing ICAM-1 mutants (SLFI, % WT); assay type: cell-based; details: SLFI of CL203 for mutant normalized to wild type CL203 SLFI; level of expression
Method: as §1, §2, §3

LFA-1 = molecular target: T1, LFA-1 (Homo sapiens, UniProt P05107+P20701); assay: Adherence of COS cells expressing ICAM-1 or ICAM-1 mutants to plastic-bound purified LFA-1; assay type: cell-based; details: COS cells expressing ICAM-1 mutant adhering to LFA-1 coated plastic; normalized for percent of cells expressing mutant and for wild type binding; mean
T1 construct: endogenous in cells

HRV14 = assay: Binding of [^35S]-Met labeled HRV14 to COS cells expressing ICAM-1 mutants; assay type: cell-based, human rhinovirus 14; details: 35S met-labeled HRV14 binding to COS cells expressing ICAM-1 mutant; normalized for percent of cells expressing mutant and for wild type binding; mean

T1 sequence (P20701 26-1170): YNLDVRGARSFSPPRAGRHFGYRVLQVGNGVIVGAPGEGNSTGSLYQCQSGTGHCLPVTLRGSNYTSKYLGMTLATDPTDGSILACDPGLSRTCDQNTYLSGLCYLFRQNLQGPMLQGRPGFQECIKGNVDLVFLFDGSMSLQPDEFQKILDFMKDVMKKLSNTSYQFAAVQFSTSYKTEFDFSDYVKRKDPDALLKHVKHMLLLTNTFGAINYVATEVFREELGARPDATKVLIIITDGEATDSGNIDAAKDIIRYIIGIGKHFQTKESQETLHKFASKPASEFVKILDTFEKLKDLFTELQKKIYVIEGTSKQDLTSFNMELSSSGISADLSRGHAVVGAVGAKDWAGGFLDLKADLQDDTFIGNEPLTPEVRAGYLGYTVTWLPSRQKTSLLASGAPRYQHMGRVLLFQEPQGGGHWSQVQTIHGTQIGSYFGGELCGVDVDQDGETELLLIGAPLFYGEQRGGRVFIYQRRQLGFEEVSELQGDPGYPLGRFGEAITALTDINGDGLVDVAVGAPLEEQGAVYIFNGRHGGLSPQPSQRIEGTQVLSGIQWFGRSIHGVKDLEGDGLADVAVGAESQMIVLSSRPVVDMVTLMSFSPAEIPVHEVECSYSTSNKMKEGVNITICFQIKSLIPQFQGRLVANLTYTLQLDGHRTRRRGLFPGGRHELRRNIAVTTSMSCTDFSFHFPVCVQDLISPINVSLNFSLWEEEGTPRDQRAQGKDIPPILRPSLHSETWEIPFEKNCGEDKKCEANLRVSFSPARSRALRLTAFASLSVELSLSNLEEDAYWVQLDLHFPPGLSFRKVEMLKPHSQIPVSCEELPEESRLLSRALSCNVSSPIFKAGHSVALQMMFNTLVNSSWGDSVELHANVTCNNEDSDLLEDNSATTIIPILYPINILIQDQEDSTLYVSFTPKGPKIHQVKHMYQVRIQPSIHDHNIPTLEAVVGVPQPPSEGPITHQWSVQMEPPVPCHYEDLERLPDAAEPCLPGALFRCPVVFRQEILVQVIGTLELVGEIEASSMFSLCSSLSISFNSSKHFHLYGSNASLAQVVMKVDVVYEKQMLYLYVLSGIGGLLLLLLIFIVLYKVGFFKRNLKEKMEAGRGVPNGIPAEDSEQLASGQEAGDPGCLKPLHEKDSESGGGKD
T1 sequence (P05107 23-769): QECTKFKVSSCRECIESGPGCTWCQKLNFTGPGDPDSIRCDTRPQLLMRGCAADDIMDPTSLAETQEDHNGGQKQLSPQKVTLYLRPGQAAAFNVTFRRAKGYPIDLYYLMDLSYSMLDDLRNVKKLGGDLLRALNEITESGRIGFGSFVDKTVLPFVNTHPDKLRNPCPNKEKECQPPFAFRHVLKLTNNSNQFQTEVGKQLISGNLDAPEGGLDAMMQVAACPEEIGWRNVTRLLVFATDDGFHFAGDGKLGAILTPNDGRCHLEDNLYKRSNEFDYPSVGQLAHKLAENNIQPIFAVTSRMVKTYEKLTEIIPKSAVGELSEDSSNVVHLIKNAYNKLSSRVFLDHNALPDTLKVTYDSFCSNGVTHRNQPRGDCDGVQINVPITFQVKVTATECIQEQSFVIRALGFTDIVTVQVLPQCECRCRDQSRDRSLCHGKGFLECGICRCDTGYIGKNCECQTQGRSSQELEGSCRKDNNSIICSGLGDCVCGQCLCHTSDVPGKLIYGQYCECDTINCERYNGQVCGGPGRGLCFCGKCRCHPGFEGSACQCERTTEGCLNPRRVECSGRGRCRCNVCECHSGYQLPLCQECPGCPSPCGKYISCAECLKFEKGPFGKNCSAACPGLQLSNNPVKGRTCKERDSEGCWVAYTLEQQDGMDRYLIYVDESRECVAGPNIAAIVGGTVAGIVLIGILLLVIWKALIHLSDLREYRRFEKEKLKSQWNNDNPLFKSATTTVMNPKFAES

B1: Q62PM/API (protein, UniProt P05362 28-532, looked up, variant Q62A M64I)
Intercellular adhesion …: QTSVSPSKVILPRGGSVLVTCSTSCDQPKLLGIETPLPKKELLLPGNNRKVYELSNVQEDSAPICYSNCPDGQSTAKTFLTVYWTPERVELAPLPSWQPVGKNLTLRCQVEGGAPRANLTVVLLRGEKELKREPAVGEPAEVTTTVLVRRDHHGANFSCRTELDLRPQGLELFENTSAPYQLQTFVLPATPPQLVSPRVLEVDTQGTVVCSLDGLFPVSEAQVHLALGDQRLNPTVTYGNDSFSAKASVSVTAEDEGTQRLTCAVILGNQSQETLQTVTIYSFPAPNVILTKPEVSEGTEVTVKCEAHPRAKVTLNGVPAQPLGPRAQLLLKATPEDNGRSFSCSATLEVAGQLIHKNQTRELRVLYGPRLDERDCPGNWTWPENSQQTPMCQAWGNPLPELKCLKDGTFPLPIGESVTVTRDLEGTYLCRARSTQGEVTRKVTVNVLSPRYEIVIITVVAAAVIMGTAGLSTYLYNRQRKIKKYRLQQAQKGTPMKPNTQATPP
LB-2 mAb
  SLFI (% CL203) LB-2: 73 % CL203
R6.5 mAb
  SLFI (% CL203) R6.5: 81 % CL203
RR1/1 mAb
  SLFI (% CL203) RR/1: 59 % CL203
CL203 mAb
  Cl203 % WT (SLFI): 200 % WT
LFA-1
  LFA-1 Binding %: 104%
HRV14
  HRV Binding %: 182%

B2: V136GE/GVK (protein, UniProt P05362 28-532, looked up, variant V136G G137V E138K)
Intercellular adhesion …: QTSVSPSKVILPRGGSVLVTCSTSCDQPKLLGIETPLPKKELLLPGNNRKVYELSNVQEDSQPMCYSNCPDGQSTAKTFLTVYWTPERVELAPLPSWQPVGKNLTLRCQVEGGAPRANLTVVLLRGEKELKREPAGVKPAEVTTTVLVRRDHHGANFSCRTELDLRPQGLELFENTSAPYQLQTFVLPATPPQLVSPRVLEVDTQGTVVCSLDGLFPVSEAQVHLALGDQRLNPTVTYGNDSFSAKASVSVTAEDEGTQRLTCAVILGNQSQETLQTVTIYSFPAPNVILTKPEVSEGTEVTVKCEAHPRAKVTLNGVPAQPLGPRAQLLLKATPEDNGRSFSCSATLEVAGQLIHKNQTRELRVLYGPRLDERDCPGNWTWPENSQQTPMCQAWGNPLPELKCLKDGTFPLPIGESVTVTRDLEGTYLCRARSTQGEVTRKVTVNVLSPRYEIVIITVVAAAVIMGTAGLSTYLYNRQRKIKKYRLQQAQKGTPMKPNTQATPP
LB-2 mAb
  SLFI (% CL203) LB-2: 138 % CL203
R6.5 mAb
  SLFI (% CL203) R6.5: 172 % CL203
RR1/1 mAb
  SLFI (% CL203) RR/1: 220 % CL203
CL203 mAb
  Cl203 % WT (SLFI): 171 % WT
LFA-1
  LFA-1 Binding %: 92%
HRV14
  HRV Binding %: 117%

B3: D71GQS/NGEL (protein, UniProt P05362 28-532, looked up, variant D71N Q73E S74L)
Intercellular adhesion …: QTSVSPSKVILPRGGSVLVTCSTSCDQPKLLGIETPLPKKELLLPGNNRKVYELSNVQEDSQPMCYSNCPNGELTAKTFLTVYWTPERVELAPLPSWQPVGKNLTLRCQVEGGAPRANLTVVLLRGEKELKREPAVGEPAEVTTTVLVRRDHHGANFSCRTELDLRPQGLELFENTSAPYQLQTFVLPATPPQLVSPRVLEVDTQGTVVCSLDGLFPVSEAQVHLALGDQRLNPTVTYGNDSFSAKASVSVTAEDEGTQRLTCAVILGNQSQETLQTVTIYSFPAPNVILTKPEVSEGTEVTVKCEAHPRAKVTLNGVPAQPLGPRAQLLLKATPEDNGRSFSCSATLEVAGQLIHKNQTRELRVLYGPRLDERDCPGNWTWPENSQQTPMCQAWGNPLPELKCLKDGTFPLPIGESVTVTRDLEGTYLCRARSTQGEVTRKVTVNVLSPRYEIVIITVVAAAVIMGTAGLSTYLYNRQRKIKKYRLQQAQKGTPMKPNTQATPP
LB-2 mAb
  SLFI (% CL203) LB-2: 26 % CL203
R6.5 mAb
  SLFI (% CL203) R6.5: 48 % CL203
RR1/1 mAb
  SLFI (% CL203) RR/1: 0 % CL203
CL203 mAb
  Cl203 % WT (SLFI): 161 % WT
LFA-1
  LFA-1 Binding %: 1%
HRV14
  HRV Binding %: 21%

B4: H152HGA/EEGS (protein, UniProt P05362 28-532, looked up, variant H152E H153E A155S)
Intercellular adhesion …: QTSVSPSKVILPRGGSVLVTCSTSCDQPKLLGIETPLPKKELLLPGNNRKVYELSNVQEDSQPMCYSNCPDGQSTAKTFLTVYWTPERVELAPLPSWQPVGKNLTLRCQVEGGAPRANLTVVLLRGEKELKREPAVGEPAEVTTTVLVRRDEEGSNFSCRTELDLRPQGLELFENTSAPYQLQTFVLPATPPQLVSPRVLEVDTQGTVVCSLDGLFPVSEAQVHLALGDQRLNPTVTYGNDSFSAKASVSVTAEDEGTQRLTCAVILGNQSQETLQTVTIYSFPAPNVILTKPEVSEGTEVTVKCEAHPRAKVTLNGVPAQPLGPRAQLLLKATPEDNGRSFSCSATLEVAGQLIHKNQTRELRVLYGPRLDERDCPGNWTWPENSQQTPMCQAWGNPLPELKCLKDGTFPLPIGESVTVTRDLEGTYLCRARSTQGEVTRKVTVNVLSPRYEIVIITVVAAAVIMGTAGLSTYLYNRQRKIKKYRLQQAQKGTPMKPNTQATPP
LB-2 mAb
  SLFI (% CL203) LB-2: 112 % CL203
R6.5 mAb
  SLFI (% CL203) R6.5: 94 % CL203
RR1/1 mAb
  SLFI (% CL203) RR/1: 103 % CL203
CL203 mAb
  Cl203 % WT (SLFI): 94 % WT
LFA-1
  LFA-1 Binding %: 85%
HRV14
  HRV Binding %: 82%

B5: R149RD/EEG (protein, UniProt P05362 28-532, looked up, variant R149E R150E D151G)
Intercellular adhesion …: QTSVSPSKVILPRGGSVLVTCSTSCDQPKLLGIETPLPKKELLLPGNNRKVYELSNVQEDSQPMCYSNCPDGQSTAKTFLTVYWTPERVELAPLPSWQPVGKNLTLRCQVEGGAPRANLTVVLLRGEKELKREPAVGEPAEVTTTVLVEEGHHGANFSCRTELDLRPQGLELFENTSAPYQLQTFVLPATPPQLVSPRVLEVDTQGTVVCSLDGLFPVSEAQVHLALGDQRLNPTVTYGNDSFSAKASVSVTAEDEGTQRLTCAVILGNQSQETLQTVTIYSFPAPNVILTKPEVSEGTEVTVKCEAHPRAKVTLNGVPAQPLGPRAQLLLKATPEDNGRSFSCSATLEVAGQLIHKNQTRELRVLYGPRLDERDCPGNWTWPENSQQTPMCQAWGNPLPELKCLKDGTFPLPIGESVTVTRDLEGTYLCRARSTQGEVTRKVTVNVLSPRYEIVIITVVAAAVIMGTAGLSTYLYNRQRKIKKYRLQQAQKGTPMKPNTQATPP
LB-2 mAb
  SLFI (% CL203) LB-2: 166 % CL203
R6.5 mAb
  SLFI (% CL203) R6.5: 189 % CL203
RR1/1 mAb
  SLFI (% CL203) RR/1: 166 % CL203
CL203 mAb
  Cl203 % WT (SLFI): 159 % WT
LFA-1
  LFA-1 Binding %: 81%
HRV14
  HRV Binding %: 139%

B6: R166PQ/EPA (protein, UniProt P05362 28-532, looked up, variant R166E Q168A)
Intercellular adhesion …: QTSVSPSKVILPRGGSVLVTCSTSCDQPKLLGIETPLPKKELLLPGNNRKVYELSNVQEDSQPMCYSNCPDGQSTAKTFLTVYWTPERVELAPLPSWQPVGKNLTLRCQVEGGAPRANLTVVLLRGEKELKREPAVGEPAEVTTTVLVRRDHHGANFSCRTELDLEPAGLELFENTSAPYQLQTFVLPATPPQLVSPRVLEVDTQGTVVCSLDGLFPVSEAQVHLALGDQRLNPTVTYGNDSFSAKASVSVTAEDEGTQRLTCAVILGNQSQETLQTVTIYSFPAPNVILTKPEVSEGTEVTVKCEAHPRAKVTLNGVPAQPLGPRAQLLLKATPEDNGRSFSCSATLEVAGQLIHKNQTRELRVLYGPRLDERDCPGNWTWPENSQQTPMCQAWGNPLPELKCLKDGTFPLPIGESVTVTRDLEGTYLCRARSTQGEVTRKVTVNVLSPRYEIVIITVVAAAVIMGTAGLSTYLYNRQRKIKKYRLQQAQKGTPMKPNTQATPP
LB-2 mAb
  SLFI (% CL203) LB-2: 64 % CL203
R6.5 mAb
  SLFI (% CL203) R6.5: 109 % CL203
RR1/1 mAb
  SLFI (% CL203) RR/1: 100 % CL203
CL203 mAb
  Cl203 % WT (SLFI): 94 % WT
LFA-1
  LFA-1 Binding %: 75%
HRV14
  HRV Binding %: 25%

B7: E111GGA/KAGS (protein, UniProt P05362 28-532, looked up, variant E111K G112A A114S)
Intercellular adhesion …: QTSVSPSKVILPRGGSVLVTCSTSCDQPKLLGIETPLPKKELLLPGNNRKVYELSNVQEDSQPMCYSNCPDGQSTAKTFLTVYWTPERVELAPLPSWQPVGKNLTLRCQVKAGSPRANLTVVLLRGEKELKREPAVGEPAEVTTTVLVRRDHHGANFSCRTELDLRPQGLELFENTSAPYQLQTFVLPATPPQLVSPRVLEVDTQGTVVCSLDGLFPVSEAQVHLALGDQRLNPTVTYGNDSFSAKASVSVTAEDEGTQRLTCAVILGNQSQETLQTVTIYSFPAPNVILTKPEVSEGTEVTVKCEAHPRAKVTLNGVPAQPLGPRAQLLLKATPEDNGRSFSCSATLEVAGQLIHKNQTRELRVLYGPRLDERDCPGNWTWPENSQQTPMCQAWGNPLPELKCLKDGTFPLPIGESVTVTRDLEGTYLCRARSTQGEVTRKVTVNVLSPRYEIVIITVVAAAVIMGTAGLSTYLYNRQRKIKKYRLQQAQKGTPMKPNTQATPP
LB-2 mAb
  SLFI (% CL203) LB-2: 89 % CL203
R6.5 mAb
  SLFI (% CL203) R6.5: 0 % CL203
RR1/1 mAb
  SLFI (% CL203) RR/1: 81 % CL203
CL203 mAb
  Cl203 % WT (SLFI): 122 % WT
LFA-1
  LFA-1 Binding %: 103%
HRV14
  HRV Binding %: 162%
